Assay results published in IntAct's records for PubMed 33986552.

Biological target: GMPPA, Q96IJ6-1
Sequence (Q96IJ6 whole entry): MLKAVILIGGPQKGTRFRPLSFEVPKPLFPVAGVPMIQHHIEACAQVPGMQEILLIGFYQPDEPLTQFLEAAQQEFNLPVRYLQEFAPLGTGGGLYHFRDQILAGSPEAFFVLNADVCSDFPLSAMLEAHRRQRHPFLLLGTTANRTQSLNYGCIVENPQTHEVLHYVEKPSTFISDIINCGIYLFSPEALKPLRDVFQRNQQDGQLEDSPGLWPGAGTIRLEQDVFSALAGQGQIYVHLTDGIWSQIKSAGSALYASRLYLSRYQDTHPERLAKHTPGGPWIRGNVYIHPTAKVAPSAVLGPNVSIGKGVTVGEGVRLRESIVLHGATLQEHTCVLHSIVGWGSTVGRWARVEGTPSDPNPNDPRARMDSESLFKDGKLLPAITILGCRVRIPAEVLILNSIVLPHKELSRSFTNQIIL

Chain of Mannose-1-phosphate guanylyltransferase catalytic subunit beta (Homo sapiens), Q9Y5P6-1 R357H (Q9Y5P6 whole entry R357H): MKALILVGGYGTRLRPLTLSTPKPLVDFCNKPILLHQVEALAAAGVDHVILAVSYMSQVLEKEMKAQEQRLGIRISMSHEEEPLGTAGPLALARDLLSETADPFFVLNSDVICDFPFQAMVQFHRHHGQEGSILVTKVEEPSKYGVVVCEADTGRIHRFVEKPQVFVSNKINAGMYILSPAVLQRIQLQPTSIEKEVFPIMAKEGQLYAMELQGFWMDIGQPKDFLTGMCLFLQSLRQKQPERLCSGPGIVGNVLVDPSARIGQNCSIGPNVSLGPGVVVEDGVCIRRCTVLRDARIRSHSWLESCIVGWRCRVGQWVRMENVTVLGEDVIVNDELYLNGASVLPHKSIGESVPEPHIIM
Chain of Mannose-1-phosphate guanylyltransferase catalytic subunit beta (Homo sapiens), Q9Y5P6-1 L303F (Q9Y5P6 whole entry L303F): as the sequence (Q9Y5P6 whole entry R357H) above, with L303F, H357R counted along it
Chain of Mannose-1-phosphate guanylyltransferase catalytic subunit beta (Homo sapiens), Q9Y5P6-1 R293W (Q9Y5P6 whole entry R293W): as the sequence (Q9Y5P6 whole entry R357H) above, with R293W, H357R counted along it
Chain of Mannose-1-phosphate guanylyltransferase catalytic subunit beta (Homo sapiens), Q9Y5P6-1 D334N (Q9Y5P6 whole entry D334N): as the sequence (Q9Y5P6 whole entry R357H) above, with D334N, H357R counted along it
Chain of Mannose-1-phosphate guanylyltransferase catalytic subunit beta (Homo sapiens), Q9Y5P6-1 C266Y (Q9Y5P6 whole entry C266Y): as the sequence (Q9Y5P6 whole entry R357H) above, with C266Y, H357R counted along it

| Substance | effect of a mutation on the interaction |
| --- | --- |
| Mannose-1-phosphate guanylyltransferase catalytic subunit beta (Homo sapiens), Q9Y5P6-1 R357H | decreasing interaction strength |
| Mannose-1-phosphate guanylyltransferase catalytic subunit beta (Homo sapiens), Q9Y5P6-1 D334N | with no effect |
| Mannose-1-phosphate guanylyltransferase catalytic subunit beta (Homo sapiens), Q9Y5P6-1 R293W | with no effect |
| Mannose-1-phosphate guanylyltransferase catalytic subunit beta (Homo sapiens), Q9Y5P6-1 L303F | with no effect |
| Mannose-1-phosphate guanylyltransferase catalytic subunit beta (Homo sapiens), Q9Y5P6-1 C266Y | with no effect |
